# Results: patent US20250026849A1 (ARCELLX, published 2025)
# Target: T1, CD123 (Homo sapiens (Human), UniProt P26951 19-305, limits assumed)
# T1 construct: The CD123 construct used in the ELISA is not described; also called CD123-Signal
# T1 sequence: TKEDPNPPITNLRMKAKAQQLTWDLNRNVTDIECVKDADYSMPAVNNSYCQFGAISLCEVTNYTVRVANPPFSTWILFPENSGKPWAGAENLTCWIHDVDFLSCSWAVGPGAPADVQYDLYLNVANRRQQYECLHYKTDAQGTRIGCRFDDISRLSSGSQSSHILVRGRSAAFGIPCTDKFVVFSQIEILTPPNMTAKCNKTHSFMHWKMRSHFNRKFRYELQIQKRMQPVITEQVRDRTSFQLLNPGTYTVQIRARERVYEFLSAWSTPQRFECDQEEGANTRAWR
# Experiment: ELISA
# Design: unit not given here
row,ELISA_avg,Binder
1,3.6,D domain of SEQ ID NO: 604 (designed binder) MGSWAEFDSRLDAIAQRLFALGGSEAELAHFEDFIAQFEYSLQEYKGKGNPEVEALSNEADAIFNELKAYRHN
2,3.6,D domain of SEQ ID NO: 605 (designed binder) MGSWAEFDSRLIAIFDRLWALGGSEAELAWFEDDIAQFEQHLQAYKGKGNPEVEALRQEADAITFELKAYRHN
3,5.9,D domain of SEQ ID NO: 606 (designed binder) MGSWTEFEERLEAIWDRLYALGGSEAELAAFEWDIAYFEDGLQEYKGKGNPEVEALFMEAEAIIRELKAYRHN
4,6.4,D domain of SEQ ID NO: 607 (designed binder) MGSWYEFEDRLAAIWDRLNALGGSEAELAIFEWDIAWFEEGLQEYKGKGNPEVEALKHEASAIQTELFAYRHN
5,3.4,D domain of SEQ ID NO: 608 (designed binder) MGSWLEFESRLWAIWDRLDALGGSEAELAHFEQDIADFEMSLQEYKGKGNPEVEALIREAEAIETELYAYRHN
6,3.7,D domain of SEQ ID NO: 609 (designed binder) MGSWMEFEDRLIAIWARLDALGGSEAELAWFEADIADFEESLQEYKGKGNPEVEALIFEAIAINKELMAYRHN
7,3.5,D domain of SEQ ID NO: 610 (designed binder) MGSWFEFTIRLEAIQDRLDALGGSEAELAWFEWDIAEFEEGLQFYKGKGNPEVEALHTEADAIMNELVAYRHN
8,3.2,D domain of SEQ ID NO: 611 (designed binder) MGSWYEFVSRLDAIEYRLWALGGSEAELAWFEWDIADFEQGLQFYKGKGNPEVEALAQEANAIGSELTAYRHN
9,4.4,D domain of SEQ ID NO: 612 (designed binder) MGSWEEFDYRLYAIQDRLYALGGSEAELAFFEWEIADFEHMLQMYKGKGNPEVEALFQEADAIDAELHAYRHN
10,3.5,D domain of SEQ ID NO: 613 (designed binder) MGSWIEFFHRLDAIQDRLDALGGSEAELAYFEWAIADFEHMLQLYKGKGNPEVEALQFEAFAIEGELYAYRHN
11,3.8,D domain of SEQ ID NO: 614 (designed binder) MGSWYEFSSRLNAIDDRLWALGGSEAELAYFETDIADFESLLQWYKGKGNPEVEALLNEADAIDYELYAYRHN
12,4,D domain of SEQ ID NO: 615 (designed binder) MGSWFEFEYRLDAIIDRLFALGGSEAELAEFESMIANFEYSLQEYKGKGNPEVEALYFEADAIVDELTAYRHN
13,3.1,D domain of SEQ ID NO: 616 (designed binder) MGSWLEFEYRLDAIYDRLFALGGSEAELAAFEQDIADFEKYLQYYKGKGNPEVEALWEEADAIMWELFAYRHN
14,5.8,D domain of SEQ ID NO: 617 (designed binder) MGSWHEFEERLMAIEDRLWALGGSEAELAEFEQWIALFEYDLQEYKGKGNPEVEALGMEAFAINNELSAYRHN
15,4.1,D domain of SEQ ID NO: 618 (designed binder) MGSWYEFEERLDAIEDRLIALGGSEAELAIFEDIIAFFEQDLQYYKGKGNPEVEALEMEAEAISIELDAYRHN
16,3.6,D domain of SEQ ID NO: 619 (designed binder) MGSWHEFEKRLYAIEDRLIALGGSEAELAWFEDSIAWFEWDLQMYKGKGNPEVEALNEEADAIYQELDAYRHN
17,9.5,D domain of SEQ ID NO: 620 (designed binder) MGSWIEFEDRLDAITDRLWALGGSEAELAEFEHQIAFFEEDLQWYKGKGNPEVEALHMEAEAIMEELGAYRHN
18,6.8,D domain of SEQ ID NO: 621 (designed binder) MGSWMEFEDRLMAIVDRLWALGGSEAELADFEWNIAMFEEELQWYKGKGNPEVEALGDEAEAIEWELYAYRHN
19,3.7,D domain of SEQ ID NO: 622 (designed binder) MGSWEEFEDRLFAIDSRLWALGGSEAELAEFENIIASFEEVLQEYKGKGNPEVEALSVEAFAIDRELGAYRHN
20,8.2,D domain of SEQ ID NO: 623 (designed binder) MGSWEEFLFRLEAIQDRLWALGGSEAELAWFEYEIASFEDVLQSYKGKGNPEVEALSTEAKAIDYELFAYRHN
21,3.3,D domain of SEQ ID NO: 624 (designed binder) MGSWVEFDNRLFAIDERLWALGGSEAELAWFEEEIASFEDNLQKYKGKGNPEVEALQLEAFAIMEELDAYRHN
22,4.1,D domain of SEQ ID NO: 625 (designed binder) MGSWFEFDDRLEAIFDRLWALGGSEAELAMFEFAIAEFEDALQEYKGKGNPEVEALYEEAVAIDEELYAYRHN

row,ELISA_avg,Binder
1,4,D domain of SEQ ID NO: 626 (designed binder) MGSWFEFDARLMAINDRLWALGGSEAELAAFEYHIALFEDQLQMYKGKGNPEVEALTLEAVAINEELWAYRHN
2,3.4,D domain of SEQ ID NO: 627 (designed binder) MGSWVEFDSRLAAIDYRLEALGGSEAELAWFEYTIANFEHTLQMYKGKGNPEVEALVYEAHAIATELQAYRHN
3,4.5,D domain of SEQ ID NO: 628 (designed binder) MGSWTEFDERLDAIDWRLEALGGSEAELAWFEGDIALFEQYLQVYKGKGNPEVEALMEEADAIKAELDAYRHN
4,7,D domain of SEQ ID NO: 629 (designed binder) MGSWIEFDERLDAIDFRLWALGGSEAELAWFEGWIAEFESDLQLYKGKGNPEVEALNEEANAIFHELSAYRHN
5,3.2,D domain of SEQ ID NO: 630 (designed binder) MGSWWEFDSRLDAIDFRLWALGGSEAELAWFEVEIADFEDWLQLYKGKGNPEVEALWHEADAIVTELYAYRHN
6,3,D domain of SEQ ID NO: 631 (designed binder) MGSWYEFDERLDAIFDRLWALGGSEAELAYFEQVIATFEKTLQRYKGKGNPEVEALDTEAKAISWELDAYRHN
7,5.5,D domain of SEQ ID NO: 632 (designed binder) MGSWYEFQERLDAIDSRLWALGGSEAELAWFEYTIAEFEKELQMYKGKGNPEVEALGTEAVAISEELMAYRHN
8,9.4,D domain of SEQ ID NO: 633 (designed binder) MGSWEEFEDRLWAIDGRLYALGGSEAELAWFEQWIATFEEDLQDYKGKGNPEVEALEYEASAIFEELEAYRHN
9,4.5,D domain of SEQ ID NO: 634 (designed binder) MGSWFEFGDRLEAIDERLYALGGSEAELAQFEWWIAEFEHHLQDYKGKGNPEVEALEYEADAIWGELHAYRHN
10,3.9,D domain of SEQ ID NO: 635 (designed binder) MGSWFEFNDRLDAISERLSALGGSEAELAYFEWQIAVFEKTLQNYKGKGNPEVEALTLEANAIFEELEAYRHN
11,4,D domain of SEQ ID NO: 636 (designed binder) MGSWVEFMDRLEAIEERLSALGGSEAELAFFEWEIAEFEEHLQVYKGKGNPEVEALEWEALAITEELAAYRHN
12,6.5,D domain of SEQ ID NO: 637 (designed binder) MGSWIEFMDRLWAIDQRLWALGGSEAELAWFEEEIAWFEEELQVYKGKGNPEVEALEWEATAISEELWAYRHN
13,5.4,D domain of SEQ ID NO: 638 (designed binder) MGSWEEFNWRLRAIDERLFALGGSEAELAWFEYDIAEFEEQLQVYKGKGNPEVEALRVEAAAIAEELYAYRHN
14,3.2,D domain of SEQ ID NO: 639 (designed binder) MGSWWEFEIRLDAIDERLWALGGSEAELAWFEQSIAFFENDLQVYKGKGNPEVEALRWEANAIIEELFAYRHN
15,10,D domain of SEQ ID NO: 640 (designed binder) MGSWYEFEWRLDAIDRRLWALGGSEAELADFEEEIADFEWMLQNYKGKGNPEVEALVDEASAIQTELWAYRHN
16,4.5,D domain of SEQ ID NO: 641 (designed binder) MGSWYEFVYRLRAIDERLDALGGSEAELAMFEFEIAFFEDQLQRYKGKGNPEVEALVDEAQAIDFELFAYRHN
17,5.5,D domain of SEQ ID NO: 642 (designed binder) MGSWWEFEDRLYAIDDRLWALGGSEAELAQFEREIAQFEIWLQEYKGKGNPEVEALDDEATAINSELFAYRHN
18,3.6,D domain of SEQ ID NO: 643 (designed binder) MGSWDEFEFRLEAIDSRLWALGGSEAELAVFEYEIAQFEFMLQEYKGKGNPEVEALGMEAWAIENELFAYRHN
19,4.3,D domain of SEQ ID NO: 644 (designed binder) MGSWEEFEWRLDAIDERLWALGGSEAELATFEYEIAIFENELQQYKGKGNPEVEALDSEAYAIERELGAYRHN
20,3.7,D domain of SEQ ID NO: 645 (designed binder) MGSWYEFFDRLDAIDERLWALGGSEAELAWFEAEIAEFEMELQGYKGKGNPEVEALDVEAHAIEMELFAYRHN
21,3.5,D domain of SEQ ID NO: 646 (designed binder) MGSWYEFMGRLEAIDERLQALGGSEAELAWFEHEIAEFEWSLQWYKGKGNPEVEALRFEAGAIPWELWAYRHN
